The record followed here is article PMC9496473, “Generation and Validation of an Anti-Human PANK3 Mouse Monoclonal Antibody” (Biomolecules, 2022).

This series concerns the molecule itself. In words: SEC; Ni-NTA eluate of His-PANK3 further subjected to size-exclusion gel chromatography; all purification steps at 4 °C.

B1: His-tagged recombinant human PANK3 protein (residues Pro12 to Asn368) (enzyme, UniProt Q9H999 12-368, looked up)
chain: PWFGMDIGGTLVKLSYFEPIDITAEEEQEEVESLKSIRKYLTSNVAYGSTGIRDVHLELKDLTLFGRRGNLHFIRFPTQDLPTFIQMGRDKNFSTLQTVLCATGGGAYKFEKDFRTIGNLHLHKLDELDCLVKGLLYIDSVSFNGQAECYYFANASEPERCQKMPFNLDDPYPLLVVNIGSGVSILAVHSKDNYKRVTGTSLGGGTFLGLCSLLTGCESFEEALEMASKGDSTQADKLVRDIYGGDYERFGLPGWAVASSFGNMIYKEKRESVSKEDLARATLVTITNNIGSVARMCAVNEKINRVVFVGNFLRVNTLSMKLLAYALDYWSKGQLKALFLEHEGYFGAVGALLGLPN
notes: Pantothenate kinase 3 (PANK3), human, residues Pro12 to Asn368, from a pET28a plasmid bought from Addgene (25518); also called His-PANK3; recombinant PANK3; source: E. coli BL21 (DE3) and E. coli Rosetta2 (DE3), purified (Ni-NTA, size-exclusion chromatography); not shown: His6, N-terminal, kept
In the case of B1, the “stoichiometry N” value came out at 2.

A word on the stoichiometry N: it is a count of units in the complex or per binding partner.
